Assay results published in patent US20230181640A1 (SHANGHAI ABELZETA, published 2023).
Residue numbers refer to the chain shown, from its start.

B1: hybridoma antibody 99B3G3 (mAb002) (antibody, IgG1, V domains shown)
VH: EVQLQQSGPVLVKPGASVKMSCKASGYTFTDLYMNWVKQSHGKSLEWIGVINPYNGGTSYNQKFKAKATLTVDKSSITAYMELNSLTSEDSAVYYCARGDSIYVMDYWGQGTSVTVSS
VL: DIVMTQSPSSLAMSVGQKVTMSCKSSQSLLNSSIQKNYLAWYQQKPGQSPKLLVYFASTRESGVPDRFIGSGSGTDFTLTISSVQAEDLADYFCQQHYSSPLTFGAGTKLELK
notes: murine hybridoma antibody, IgG1,κ; re-named CP02; also called CP02
B2: hybridoma antibody 143D6F4 (mAb011) (antibody, IgG2b, V domains shown)
VH: B1 VH with L32Y, Y33S, M34L, I51V, Y60H, A66G, I77S, G99P
VL: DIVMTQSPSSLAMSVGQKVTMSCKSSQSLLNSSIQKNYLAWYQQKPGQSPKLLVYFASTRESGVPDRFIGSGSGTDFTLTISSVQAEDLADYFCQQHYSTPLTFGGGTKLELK
notes: murine, IgG2b,κ; re-named CP07; also called CP07
B3: hybridoma antibody 151A9A4 (mAb012) (antibody, IgG2b, V domains shown)
VH: B1 VH with L32Y, Y33S, M34L, I51V, S59T, A66G, I77S, G99P, Y107S
VL: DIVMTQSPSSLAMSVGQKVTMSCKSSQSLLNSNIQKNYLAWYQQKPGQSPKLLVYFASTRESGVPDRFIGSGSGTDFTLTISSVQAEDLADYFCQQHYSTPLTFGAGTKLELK
notes: murine, IgG2b,κ; re-named CP08; also called CP08
B4: hybridoma antibody 102A12H6 (mAb003) (antibody, IgG1, V domains shown)
VH: EVQLQQSGPELVKPGASVKISCKASGYSFTGYYMNWVKQSPEKSLEWIGEINSSTGGTTYNQKFKAKATMTVDKSSNTAYMELKSLTSEDSAVYYCRYYGSDWHFDVWGTGTTVTVSS
VL: QIVLTQSPALMSASPGEKVTMTCSASSSVSYMYWYQQKPRSSPKPWIYLTSSLASGVPARFSGSGSGTSYSLTISTMEAEDAATYYCQQWSSDPLTFGAGTKLELK
notes: murine hybridoma antibody, IgG1,κ
B5: hybridoma antibody 100H2D12C6 (mAb009) (antibody, IgG1, V domains shown)
VH: B1 VH
VL: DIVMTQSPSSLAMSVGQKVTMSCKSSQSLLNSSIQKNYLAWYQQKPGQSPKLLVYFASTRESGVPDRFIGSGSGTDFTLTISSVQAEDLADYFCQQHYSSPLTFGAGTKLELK
notes: murine, IgG1,κ
B6: hybridoma antibody 109C5F3C1 (mAb010) (antibody, V domains shown)
VH: EVQLQQSGPVLVKPGASVKMSCKVSGYTFTDYYMNWVKQSHGKSLEWIGVITPYNGANRYNQKFKGKATLTVDKSSSTAYMEVSSLTSEDSAVYYCARGDSIYVMDYWGQGTSVIVSS
VL: not shown
notes: murine; re-named CP06; also called CP06
B7: hybridoma antibody 6G10-1D7 (mAb001) (antibody, IgG1, V domains shown)
VH: EVQLQQSGPELVKPGASMKISCKASDYSFTDYIMTWVKQSHGKNLEWIGLINPYNGGTTYNQKFKDKATFTVDKSSTTAYMDLLSLTSEDSAVYYCARRGITTDYYTMDYWGQGTSVTVSS
VL: DIVMTQSQRFMSTSVGDRVSITCKASQSVGTAVAWYQQTPGQFPKLLIYSTSNRYTGVPDRFTGSGSGTDFTLTISNMQSEDLADYFCQQYSTYPLTFGSGTKLELK
notes: tested as supernatant and purified; also called CP01
B8: hybridoma antibody 105C10F1 (mAb004) (antibody, IgG2b, V domains shown)
VH: EVKLLQSGGGLVQPGGSLKLSCAASGIDFSRYWMSWVRRAPGKGLEWIGEINPDSSTINYAPSLKDKFIISRDAAKNTLYLQMSKVRSEDTALYYCATLYYDYDGDYAMDYWGQGTSVTVSS
VL: DIVMTPSQKFMSTSVGDRVSVTCKASQNVGTNVAWYQQKPGQSPKALIYSASYRYSGVPDRFTGSGSGTDFTLTISNVQSEDLAEYFCQHYNSYPFTFGSGTKLEIK
notes: murine hybridoma antibody, IgG2b,κ; re-named CP03; also called CP03
B9: hybridoma antibody 152D8E8 (mAb013) (antibody, IgG1, V domains shown)
VH: QVTLKESGPGILQSSQTLSLTCSFSGFSLNTSGMGVNWIRQSSGKDLEWLAHIYWNDDKRYNPSLKSRLTISKDTSRNQVFLRITSVDATDTATYFCCRSRLSFDYWGHGTTLTVSS
VL: DIKMTQSPSSMYVSLGERVTITCKASQDINRNLSWFQQKPGKSPKTLIYRANRLVDGVPLRFSGSGSGQDYSLTISSLEYEDMGIYYCLQYDEFPRTFGGGTKLEIK
notes: murine, IgG1,κ; re-named CP09; also called CP09
B10: hybridoma antibody 113B3F12 (mAb008) (antibody, IgG2b, V domains shown)
VH: EVQLQQSGPVLVKPGASVKMSCKASGYTFTDYYMNWVKQSHGKSLEWIGVINPYNGGTDYNQKFKGKATLTVDKSSSTAYMELNSLTSEDSAVYYCARRRESYGTSYQGAYFDSWGQGTTLTVSS
VL: DIQMTQTTSSLSASLGDRVTISCRASQDISNYLNWYQQKPDGTVKLLIYYTSRLHSGVPSRFSGSGSGTDYSLSISDLEQEDIATYFCQQVITLPWTFGGGTKLEIK
notes: murine hybridoma antibody, IgG2b,κ
B11: chimeric antibody of hybridoma 6G10-1D7 (antibody, human IgG1, kappa, V domains shown)
VH: B7 VH
VL: DIVMTQSQRFMSTSVGDRVSITCKASQSVGTAVAWYQQTPGQFPKLLIYSTSNRYTGVPDRFTGSGSGTDFTLTISNMQSEDLADYFCQQYSTYPLTFGSGTKLELKR
notes: IgG1,κ chimeric antibody, HEK 293T supernatant
B12: chimeric antibody of hybridoma 99B3G3 (antibody, human IgG1, kappa, V domains shown)
VH: B1 VH
VL: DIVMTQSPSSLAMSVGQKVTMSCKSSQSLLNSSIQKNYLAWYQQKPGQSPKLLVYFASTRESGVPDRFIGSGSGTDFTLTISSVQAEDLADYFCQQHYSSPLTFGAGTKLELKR
notes: as for B11
B13: chimeric antibody 107A9A4D2VH/VL-2 (antibody, human IgG1, kappa, V domains shown)
VH: B1 VH with V37L, S44R, A66G, I77S, E82D, V114F
VL: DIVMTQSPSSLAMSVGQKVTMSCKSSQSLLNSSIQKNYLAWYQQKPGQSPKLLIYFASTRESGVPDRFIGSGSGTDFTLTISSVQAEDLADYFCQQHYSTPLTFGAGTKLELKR
notes: IgG1,κ chimeric antibody, HEK 293T supernatant; also called 107A9A4D2VH paired with 107A9A4D2VL-2
B14: chimeric antibody of hybridoma 105C10F1 (antibody, human IgG1, kappa, V domains shown)
VH: B8 VH
VL: DIVMTPSQKFMSTSVGDRVSVTCKASQNVGTNVAWYQQKPGQSPKALIYSASYRYSGVPDRFTGSGSGTDFTLTISNVQSEDLAEYFCQHYNSYPFTFGSGTKLEIKR
notes: as for B11
B15: chimeric antibody of hybridoma 113B3F12 (antibody, human IgG1, kappa, V domains shown)
VH: B10 VH
VL: DIQMTQTTSSLSASLGDRVTISCRASQDISNYLNWYQQKPDGTVKLLIYYTSRLHSGVPSRFSGSGSGTDYSLSISDLEQEDIATYFCQQVITLPWTFGGGTKLEIKR
notes: as for B11
B16: hybridoma clone 107A9A4D2 (antibody, V domains shown)
VH: B1 VH with V37L, S44R, A66G, I77S, E82D, V114F
VL: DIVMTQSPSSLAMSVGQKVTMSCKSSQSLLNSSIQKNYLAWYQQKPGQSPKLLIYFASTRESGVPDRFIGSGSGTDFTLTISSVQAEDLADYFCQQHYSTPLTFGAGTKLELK
notes: murine hybridoma supernatant
B17: hybridoma clone 107A11F1B7 (antibody, V domains shown)
VH: B1 VH with V37L, S44R, A66G, I77S, E82D, V114F
VL: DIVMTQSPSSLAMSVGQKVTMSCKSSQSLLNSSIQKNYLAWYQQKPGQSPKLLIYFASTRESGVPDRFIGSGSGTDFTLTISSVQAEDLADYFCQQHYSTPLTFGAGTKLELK
notes: murine hybridoma supernatant; re-named CP04; also called CP04
B18: hybridoma clone 97B8G8D12 (antibody, V domains shown)
VH: B1 VH
VL: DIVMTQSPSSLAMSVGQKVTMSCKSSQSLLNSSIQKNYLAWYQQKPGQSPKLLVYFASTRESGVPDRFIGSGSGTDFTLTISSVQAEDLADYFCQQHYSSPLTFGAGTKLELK
notes: murine hybridoma supernatant; gave no antibody in small-batch production

Target: T1, cynoBCMA-ECD-Fc (machin BCMA extracellular domain Fc fusion) (machin)
T1 construct: extracellular domain; also called soluble extracellular domain of machin BCMA
Test: ELISA, purified hybridoma antibody

Row | Binder | EC50 [nM]
1 | B1 | 0.23
2 | B2 | 0.17
3 | B3 | 0.15
4 | B4 | 0.062
5 | B5 | 0.033
6 | B6 | 0.18

Target: T2, Recombinant human TACI/TNFRSF13B Fc chimeric protein, CF (hTACI-ECD-Fc) (human, UniProt O14836 1-165)
T2 construct: extracellular domain; bought reagent; not shown: Fc part of the bought chimera is not described
T2 sequence (looked up): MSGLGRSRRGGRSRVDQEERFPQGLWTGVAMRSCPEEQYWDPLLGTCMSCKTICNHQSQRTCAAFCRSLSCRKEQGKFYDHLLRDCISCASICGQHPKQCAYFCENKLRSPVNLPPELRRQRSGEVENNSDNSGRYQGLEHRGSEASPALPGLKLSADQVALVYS
Test: ELISA, purified hybridoma antibody

Row | Binder | binding result
7 | B7 | no binding
8 | B1 | no binding
9 | B2 | no binding
10 | B3 | no binding
11 | B4 | no binding
12 | B8 | no binding
13 | B5 | no binding
14 | B6 | no binding
15 | B9 | no binding

Target: T3, hBCMA-ECD-Fc (fusion protein of human BCMA extracellular domain Met1-Ala54 and human IgG1 Fc fragment … (human, UniProt Q02223 1-54))
T3 construct: range 1-54; also the immunogen; also called soluble extracellular domain of human BCMA; not shown: human IgG1 Fc fragment, Pro100-Lys330
T3 sequence (looked up): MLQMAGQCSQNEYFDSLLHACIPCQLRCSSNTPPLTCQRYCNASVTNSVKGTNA
Test: ELISA, purified hybridoma antibody

Row | Binder | EC50 [nM]
16 | B7 | 0.034
17 | B1 | 0.032
18 | B2 | 0.15
19 | B3 | 0.17
20 | B4 | 0.058
21 | B8 | 0.038
22 | B10 | 0.15
23 | B5 | 0.033
24 | B6 | 0.18

Target: T4, human BCMA on cells (L-BCMA+, K562-BCMA+, A549-BCMA-1D6) (human, UniProt Q02223 1-184)
T4 construct: whole, on cells; the cell line of each assay is named under assay; also called L-BCMA-1E6-A4; K562-BCMA-B22D8
T4 sequence (looked up): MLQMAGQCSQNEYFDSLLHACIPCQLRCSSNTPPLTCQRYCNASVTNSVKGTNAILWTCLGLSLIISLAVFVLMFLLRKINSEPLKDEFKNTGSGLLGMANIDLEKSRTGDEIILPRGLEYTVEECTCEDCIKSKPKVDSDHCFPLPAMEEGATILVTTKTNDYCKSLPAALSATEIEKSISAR
Test: FACS, chimeric antibody supernatant, L-BCMA+ cells; also: test concentration or dose not given here

Row | Binder | FACS (MFI)
25 | B11 | 3470
26 | B12 | 2180
27 | B13 | 525
28 | B14 | 1800
29 | B15 | 37.5

Target: T3, hBCMA-ECD-Fc (fusion protein of human …)
Test: ELISA, chimeric antibody supernatant; also: test concentration or dose not given here

Row | Binder | ELISA (OD450 nm) [OD450]
30 | B11 | 2.35
31 | B12 | 2.3
32 | B13 | 2.45
33 | B14 | 2.39
34 | B15 | 0.09

Target: T1, cynoBCMA-ECD-Fc (machin BCMA …)
Test: ELISA, hybridoma supernatant

Row | Binder | ELISA (OD450 nm) [OD450]
35 | B7 | 1.95
36 | B1 | 3.65
37 | B2 | 3.4
38 | B3 | 3.4
39 | B16 | 3.58
40 | B17 | 3.5
41 | B4 | 3.53
42 | B8 | 0.18
43 | B10 | 0.18
44 | B5 | 3.48
45 | B6 | 3.41
46 | B9 | 3.31
47 | B18 | 3.37

Target: T3, hBCMA-ECD-Fc (fusion protein of human …)
Test: ELISA, hybridoma supernatant

Row | Binder | ELISA (OD450 nm) [OD450]
48 | B7 | 2.9
49 | B1 | 3.68
50 | B2 | 3.26
51 | B3 | 3.34
52 | B16 | 3.51
53 | B17 | 3.53
54 | B4 | 3.6
55 | B8 | 3.42
56 | B10 | 3.9
57 | B5 | 3.37
58 | B6 | 3.57
59 | B18 | 3.06

Target: T5, Recombinant hFc fusion protein control (NC-Fc)
T5 construct: negative control antigen of the screens; also called NC-hFc
Test: ELISA, hybridoma supernatant

Row | Binder | ELISA (OD450 nm) [OD450]
60 | B7 | 0.08
61 | B1 | 0.14
62 | B2 | 0.2
63 | B3 | 0.24
64 | B4 | 0.12
65 | B8 | 0.1
66 | B10 | 0.14
67 | B5 | 0.13
68 | B6 | 0.57
69 | B9 | 0.23
70 | B18 | 0.13

Target: T4, human BCMA on cells (L-BCMA+, …)
Test: FACS, hybridoma supernatant, BCMA+ cells; also: test concentration or dose not given here

Row | Binder | FACS (MFI)
71 | B7 | 3880
72 | B1 | 1930
73 | B2 | 1510
74 | B3 | 2920
75 | B16 | 4650
76 | B17 | 5180
77 | B4 | 762
78 | B8 | 1960
79 | B10 | 3890
80 | B5 | 1140
81 | B6 | 2890
82 | B18 | 358
